# From article PMC9307175 (PLoS Pathogens, 2022)
# T1: Flag- and His6-tagged STAT1, bacterially expressed (pET-Flag-STAT1-His6) (human, UniProt P42224 1-750)
# T1 construct: also called STAT1 (Flag-tagged); recombinant STAT1; source: E. coli BL21(DE3), purified (Ni-NTA)
# T1 sequence: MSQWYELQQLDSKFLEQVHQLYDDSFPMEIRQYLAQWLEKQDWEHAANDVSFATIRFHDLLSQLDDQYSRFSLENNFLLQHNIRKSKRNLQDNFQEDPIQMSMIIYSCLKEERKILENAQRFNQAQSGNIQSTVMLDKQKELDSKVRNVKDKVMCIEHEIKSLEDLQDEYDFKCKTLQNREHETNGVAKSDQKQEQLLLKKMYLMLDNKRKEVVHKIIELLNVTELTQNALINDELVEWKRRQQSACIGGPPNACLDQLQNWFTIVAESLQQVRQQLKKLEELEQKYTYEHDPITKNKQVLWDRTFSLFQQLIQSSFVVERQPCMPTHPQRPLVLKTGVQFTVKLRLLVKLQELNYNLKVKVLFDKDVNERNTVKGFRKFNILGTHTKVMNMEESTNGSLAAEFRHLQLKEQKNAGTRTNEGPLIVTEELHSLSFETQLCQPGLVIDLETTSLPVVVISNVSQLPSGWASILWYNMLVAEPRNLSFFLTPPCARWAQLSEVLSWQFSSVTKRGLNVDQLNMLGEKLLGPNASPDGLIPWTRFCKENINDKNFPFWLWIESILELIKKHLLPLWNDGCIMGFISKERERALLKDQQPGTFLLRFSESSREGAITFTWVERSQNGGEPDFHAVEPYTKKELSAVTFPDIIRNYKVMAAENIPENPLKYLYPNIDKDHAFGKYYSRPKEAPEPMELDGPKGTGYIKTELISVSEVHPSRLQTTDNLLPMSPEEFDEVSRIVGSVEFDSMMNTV
# B1: Flag- and His6-tagged IRF9, bacterially expressed (pET-Flag-IRF9-His6) (natural protein)
# chain: MASGRARCTRKLRNWVVEQVESGQFPGVCWDDTAKTMFRIPWKHAGKQDFREDQDAAFFKAWAIFKGKYKEGDTGGPAVWKTRLRCALNKSSEFKEVPERGRMDVAEPYKVYQLLPPGIVSGQPGTQKVPSKRQHSSVSSERKEEEDAMQNCTLSPSVLQDSLNNEEEGASGGAVHSDIGSSSSSSSPEPQEVTDTTEAPFQGDQRSLEFLLPPEPDYSLLLTFIYNGRVVGEAQVQSLDCRLVAEPSGSESSMEQVLFPKPGPLEPTQRLLSQLERGILVASNPRGLFVQRLCPIPISWNAPQAPPGPGPHLLPSNECVELFRTAYFCRDLVRYFQGLGPPPKFQVTLNFWEESHGSSHTPQNLITVKMEQAFARYLLEQTPEQQAAILSLV
# notes: also called IRF9 (Flag-tagged); recombinant IRF9; source: E. coli BL21(DE3), purified (Ni-NTA)
# B2: S-peptide and His6 dually-tagged vIRF-1, bacterially expressed (pET-S-vIRF-1-His6) (natural protein)
# chain: MDPGQRPNPFGAPGAIPKKPCLSQGSPGTSGSGAPCDEPSRSESPGEGPSGTGGSAAAGDITRQAVVAAITEWSRTRQLRISTGASEGKASIKDWIVCQVNSGKFPGVEWEDEERTRFRIPVTPLADPCFEWRRDGELGVVYIRERGNMPVDASFKGTRGRRRMLAALRRTRGLQEIGKGISQDGHHFLVFRVRKPEEEQCVECGVVAGAVHDFNNMARLLQEGFFSPGQCLPGEIVTPVPSCTTAEGQEAVIDWGRLFIRMYYNGEQVHELLTTSQSGCRISSALRRDPAVHYCAVGSPGQVWLPNVPNLACEIAKRELCDTLDACAKGILLTSSCNGIFCVCYHNGPVHFIGNTVPPDSGPLLLPQGKPTRIFNPNTFLVGLANSPLPAPSHVTCPLVKLWLGKPVAVGKLEPHAPSPRDFAARCSNFSDACVVLEIMPKPLWDAMQ
# notes: source: E. coli BL21(DE3), purified (Ni-NTA)
# B3: StrepII+Flag (SF)-tagged vIRF-1 (natural protein)
# chain: B2 chain
# B4: Flag-tagged STAT1 (pCEBZ-STAT1-SF) (natural protein)
# chain: T1 sequence
# notes: also called STAT1-Flag
# Columns and labels:
# [1] = target: B2; assay: pull-down; details: both partners purified
# [2] = target: T2, Flag- and His6-tagged STAT2, bacterially expressed (pET-Flag-STAT2-His6) (human, UniProt P52630 1-851); assay: pull-down; details: both partners purified
# T2 construct: also called STAT2 (Flag-tagged); recombinant STAT2; source: E. coli BL21(DE3), purified (Ni-NTA)
# T2 sequence (P52630 whole entry): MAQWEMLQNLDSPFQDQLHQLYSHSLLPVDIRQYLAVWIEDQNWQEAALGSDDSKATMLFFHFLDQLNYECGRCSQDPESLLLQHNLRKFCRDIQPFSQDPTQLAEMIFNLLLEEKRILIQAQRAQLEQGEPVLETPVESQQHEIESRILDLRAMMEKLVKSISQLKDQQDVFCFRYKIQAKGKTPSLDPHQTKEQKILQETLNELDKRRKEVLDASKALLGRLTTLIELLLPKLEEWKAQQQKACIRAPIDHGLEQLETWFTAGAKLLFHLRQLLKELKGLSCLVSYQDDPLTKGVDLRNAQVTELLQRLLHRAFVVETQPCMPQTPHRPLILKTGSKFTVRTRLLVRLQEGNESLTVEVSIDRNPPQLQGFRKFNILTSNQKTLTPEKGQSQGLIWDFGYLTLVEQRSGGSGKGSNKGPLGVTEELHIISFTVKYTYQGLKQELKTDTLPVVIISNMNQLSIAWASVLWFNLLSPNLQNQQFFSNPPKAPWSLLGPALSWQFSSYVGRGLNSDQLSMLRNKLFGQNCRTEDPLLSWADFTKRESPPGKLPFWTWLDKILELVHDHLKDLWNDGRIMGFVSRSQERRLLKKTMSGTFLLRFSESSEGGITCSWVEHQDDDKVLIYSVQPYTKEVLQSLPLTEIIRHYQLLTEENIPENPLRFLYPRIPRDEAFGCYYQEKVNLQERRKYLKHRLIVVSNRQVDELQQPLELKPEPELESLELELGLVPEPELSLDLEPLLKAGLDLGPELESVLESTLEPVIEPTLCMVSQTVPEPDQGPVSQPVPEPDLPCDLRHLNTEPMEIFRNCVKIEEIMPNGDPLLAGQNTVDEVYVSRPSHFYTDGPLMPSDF
# [3] = target: T1, Flag- and His6-tagged STAT1, …; assay: pull-down; details: both partners purified
# [4] = target: T3, chitin-binding domain (CBD)-tagged STAT2 (human (HeLa cDNA library), UniProt P52630 1-851); assay: co-IP; details: partners not purified
# T3 construct: also called STAT2-CBD; CBD-fused STAT2
# T3 sequence (P52630 whole entry, the tested form may be a part): as the sequence (P52630 whole entry) above
binder,measurement,setting,value
B1,binding result,[1],binds
B2,binding result,[2],binds
same,binding result,[3],binds
B3,binding result,[4],binds
B4,binding result,[4],binds
